Results reported in the DeepSol protein solubility set.

Test: soluble on expression in E. coli; label from the status in PepcDB or PDB records

Sequence | soluble on expression in E. coli
VTLAAEPHPAPPQQPTVAWSEPDVDRRVEFWPTVAIRSALESGDIATWQRIAAALKRDPYGRTARQVEEVLEGIPATGIANAFWEVLDRARTHLDANERAEVARQVGLLLDRSGLQRQEFASRIGVTAQDLTAYLDGIVSPSASLMIRMRRLSDRFVRAKSVRAADS | soluble
MVRIYTLTLAPSLDSATITPQIYPEGKLRCSAPVFEPGGGGINVARAIAHLGGTATAIFPAGGATGEHLVALLADENVPVSTVDAKDWTRQNLHVHVESSGEQYRFVMPGATLDDDEFRQLEEQVLEIESGAILVISGSLPPGVKVEKLTQLISAAQKQGIRCIIDSSGDALTAALALGDIELVKPNLKELSALVNRDLTQPDDVRKAAQELVQSGKARRVVVSLGPQGALGIDSENCIQVVPPPVKSQSTVGAGDSMVGAMTLKLAQDASLEEMVRFGVAAGSAATLNQGTRLCSRDDTQKIYAYLSAQ | not soluble
MSLAQINVAILGAGRIAQSMAETLVKMAADDRYRDLVAPYAVAARDGERAAAFAAKYGFPVSYGSYEELVADPNVNLVYIATPHNFHAEQAILCMRAGKGVLVEKAFGANTQQAREILDVSDETGMLCTEAIWTRYMPSRGMIDDIIASGVIGEVQAIDANLCYPTTAKARITDPALAGGALLDVGVYPINFIDMIMHNAPIARVESSMQPYETGVDAHNSMTFYYQNGVMATAQSSILCHSDRMGAVWGTEGYLTCQNINNVEAIDMFDGSHAVTAHYDVPEQLTGYEYEVASTAQAMLDGRTECDEMPHSDTLRIMECMDSLRADWGLKYPFEAEGHHHHHH | soluble
ANKNKGFEGVAWDPRRQQLLLGEERPPALYTWKSDGSNVLKGDKQSLLSRALDMRNLSSLSIDPRTGHMLALSADSHMLLEVDEQGNQVSFMTLLGGMNGLKD | not soluble
MQDLPPCPKCNDAYTYHDGTQLICPSCLYEWNENEVNDEELIVKDCHNNLLQNGDSVILIKDLKVKNSSLVLKKGTKIKNTKLVNSDHNVDCKIEGQSLSLKSEFLKKA | not soluble
MSDLMQKENIVVMLTKKGFLKRLSQNEYKLQGTGGKGLSSFDLNDGDEIVIALCVNTHDYLFMISNEGKLYLINAYEIKDSSRASKGQNISELINLGDQEEILTIKNSKDLTDDAYLLLTTASGKIARFESTDFKAVKSRGVIVIKLNDKDFVTSAEIVFKDEKVICLSKKGSAFIFNSRDVRLTNRGTQGVCGMKLKEGDLFVKVLSVKENPYLLIVSENGYGKRLNMSKISELKRGATGYTSYKKSDKKAGSVVDAIAVSEDDEILLVSKRSKALRTVAGKVSEQGKDARGIQVLFLDNDSLVSVSKFIK | soluble
MARNAEKAMTALARFRQAQLEEGKVKERRPFLASECTELPKAEKWRRQIIGEISKKVAQIQNAGLGEFRIRDLNDEINKLLREKGHWEVRIKELGGPDYGKVGPKMLDHEGKEVPGNRGYKYFGAAKDLPGVRELFEKEPLPPPRKTRAELMKAIDFEYYGYLDEDDGVIVPLEQEYEKKLRAELVEKWKAEREARLARGEKEEEEEEEEEINIYAVTEEESDEEGSQEKGGDDSQQKFIAHVPVPSQQEIEEALVRRKKMELLQKYASETLQAQSEEARRLLGY | soluble
MRQVTIPLIQSKSMFCVIYRSSKRDQTYLYVEKKDDFSRVPEALMKGFGQPQLAMMLPLDGRKKLVNAELEKVKQALSEQGYYLQLPPPPEDLLKQHLSSVGQNTSPADR | not soluble
MVKTRLTAEEFFALPLERGELVDGEVREERPPKPEHGRIALRIGYHLMRWLEETGRGVAGVEGGFVLRRDPDRVRSPDVWFLSHERLKEVTREGFYEGAPDLAVEVVSPGEEAEGVLAKVLDYLEAGAKAVWLVYPELKAVEVYGRGGEGRLLRAHEVLEGGEALPGFRLPLEALFGQ | soluble
MNKKIYVGMTADIMHPGLIHIIHEATKYGDVIVGLLTDKAIAEHKRLPYLTYDQRKEVVENIKGVCEVVPQEDWSYVPNLEKLKPDYIIHGDDWKTGPLREVREQVFEVMNAQGGKVIEIPYTRGINSSSLDKDIKAIGTTPDVRLKSLRRLIQAKPVVRILEAHDGLCGLIIENLEVQKGDKREVFDGMWSSSLTDSTSKGKPDIEAVDLTTRLQDLNNILECTTKPIIFDGDTGGKIEHFVFTVRTLERHGISAVIIEDKVGLKKNSLFGTDAIQTQDSIEGFCDKIRAGKNAQVTGDFMIIARIESLIAGKPMSDALERAYAYVQAGADGIMIHSKDKSGEDIREFCRTFRKEYAHVPIVVVPTTYDHVHESELHEWGANVVIYANHLLRAAYPAMMNVARTILENERAEEVRPLCMPIKEILELIPGTK | not soluble
MWAFRTARIGSLLAATSVILRRCLRLGVAMAKSKFEYVRNFEVQDTCLPHCWVVVRLDGRNFHRFAEEHNFAKPNDSRALHLMTKCAQTVMEELEDIVIAYGQSDEYSFVFRKKSNWFKRRASKFMTLVASQFASSYVFYWRDYFEDQPLRYPPGFDGRVVLYPSNQTLKDYLSWRQADCHINNLYNTVFWALIQQSGLTPVQAQQRLKGTLTADKNEILFSEFHINYNNEPHMYRKGTVLVWQKVEEVRTQEVRLPAEMEGEKKAVARTRTRVVALNCDLIGDAFWKEHPEILAEEN | soluble
MDSVMRKSLFLLLPLVVTNAHAVYVDVRHEYLDDSKANYDRAYISHRFANGVGFAIEAISKSGGDDTNKAFNDLETQGNEYTISYQFKTGDVAWQPGFVLETGNGYSTYKPYFRATWTLNESWWVGARYRFEYVRRSSDIRDDDTINRMDVWAGYKWNNFDWTIEGIYKKADKYDLYDGGKDNYEYNFRTAYIIDQWSPFVEVGNVSVNSNSDERQTRFRVGIGYTF | not soluble
MSLETSDAPHSSLVGNSVFVTHPDLKRLFQMAVSKSVREILIPAVEKAANMAVQSTVNIVLKDFATEVDEQKLKTAAINMVQYLAQNVAHSISVPLLKDTIRNTTQSLTPNLINMTNSPIAELNTAIDDNIAIAVSPIEKAAVERAIQEVNEKLVQAVAVRRYHLERRSDQPFVAQNINRFSLNLPDPLGLKPTGVTREQFSLYEQFPASMPSDSSRSPLETILAQEGHHHHHH | soluble
MNNYTIKDITRASGGFAMLAVDQREAMRLMFAAAGAKTPVADSVLTDFKVNAAKILSPYASAVLLDQQFCYRQAVEQNAVAKSCAMIVAADDFIPGNGIPVDNVVLDKKINAQAVKRDGAKALKLLVLWRSDEDAQQRLNMVKEFNELCHSNGLLSIIEPVVRPPRCGDKFDREQAIIDAAKELGDSGADLYKVEMPLYGKGARSDLLTASQRLNGHINMPWVILSSGVDEKLFPRAVRVAMEAGASGFLAGRAVWSSVIGLPDTELMLRDVSAPKLQRLGEIVDEMMAKRR | soluble
MKILVIGAGPAGLVFASQLKQARPLWAIDIVEKNDEQEVLGWGVVLPGRPGQHPANPLSYLDAPERLNPQFLEDFKLVHHNEPSLMSTGVLLCGVERRGLVHALRDKCRSQGIAIRFESPLLEHGELPLADYDLVVLANGVNHKTAHFTEALVPQVDYGRNKYIWYGTSQLFDQMNLVFRTHGKDIFIAHAYKYSDTMSTFIVECSEETYARARLGEMSEEASAEYVAKVFQAELGGHGLVSQPGLGWRNFMTLSHDRCHDGKLVLLGDALQSGHFSIGHGTTMAVVVAQLLVKALCTEDGVPAALKRFEERALPLVQLFRGHADNSRVWFETVEERMHLSSAEFVQSFDARRKSLPPMPEALAQNLRYALQRLEHHHHHH | soluble
TLTIDDGNIEIVGTGVKGKLPTVWLQYGQVNLKASGGNGKYTWRSANPAIASVDASSGQVTLKEKGTTTISVISSDNQTATYTIATPNSLIVPNMSKRVTYNDAVNTCKNFGGKLPSSQNELENVFKAWGAANKYEYYKSSQTIISWVQQTAQDAKSGVASTYDLVKQNPLNNIKASESNAYATCVK | soluble
MSLAKIVNVRPVLLSTPYGFEGCAENALHLPNGIRGCSMVEITLDNGVKGLGEGYLGVFAPDVFTSIARLVGTAITGDDISNGYGAVLAKAKTVTAYWSLQGAAQHVISAIEIALVDALSRVREIPAVELFGGKKVESIAMYGSGGDSLHPQYMAQELEQLAQRGIQTIKIRARHHQAAKTIWTIEAGRQYGIRVAVDMTQNLSIEGQTAEQVQAFCDLIQRETGEELVFVEECLGLDKLTQLPLLALQEGIAVAGGEIVTTKEELFDRIDANYYNVVQPDASVLGGIGDTIAVCEYAKQRSVNPVVHSWGGPVAMMANYVAAFATGCSLIEYPMPHFELRNVMCNLESRIHDGHFHLGDDIGLGVTLTDDIEGQFPHTNDALYHCFPMEDGLQQLEDSHRHWVKAEGHHHHHH | soluble
MRKLFLLAIVLCVWSVVADAQESERRYIEVTGSSEIEVVPDEIHLLIQIKEYWKEEFVPKSKPEDYKTKVPLEWIEKDLRRVLSRAGISDEAIRVQEIGDYWRQKGKEFLIGKQLDIRFTDFEKINAVIKKIDTKGIESMRIGELKHKDLPNYRKQGKIEALKAAREKASYLVEAMGQKLGEVIRIVEPASSYVSPYSLYQAQSNVSMGTAATEQYRVITLRYEMTARFAIELEHHHHHH | soluble
MGSDKIHHHHHHMKINTSMLWEDKAKSEVTYTTYLIEKTPDIKNKNPRPAVIICGGGGFFKVTDREKEPVALYFLNKGFQAITLDYTVGKGSGYPKPLYDLAKMLLIVRENAQNWNIDTEKVIFIGFSAGATHSASLANSWNEPFLQKYFDYPGETLKPSLVILSYPLLDFNYQYEQVSVDPDNQMPTKLSPMPKIDFLTGALKTVVGKELTTENLKEYSPIEHISTATVPTFIWGMQDDDCIYNNALLEYAKRLKDNGILYELHMFALGEHGLSVINSNTQAKFSDYEELGIWKKLCIQFINRVLHLK | not soluble
MAHHHHHHMFKTMMFKTMRNYFMLNFKRNYRHYSRKKNINNINRKMNDPYSDLYKMNYYGNNFKRLPNKKTKSNEYELIRTSSNSFTYSSPYPPNINYTLKPYPDSAKEFYYENRKYVMKYKNVEYIPIKRMVCKGMSRRSNWDTYYLRVEK | not soluble
RSPICHLFSAINSSPFKIAPEKEQDLKTIVDDKKIIISVVSEPGFNIRVRKNESNNSHEIVLTVASLEYIWAFSNFFWVFTQEYSKSQKNNDEHFDLTGKNRLKKSDELLKWARKNLQTTGCESWPKKCPKPEAYLQGSEDSQVASEIFLCAIAWILHHEISHVVLQHPLVTTAFSTQEEREADSHATKWILGNLYESAPELKKRALGIATAVLCIQSLEVENYFCLQNTHPAAYERIYSNISCYPVGNEELIEALCTVMLQYLFHGKNINVNLDGESFSSILGDLLCDISRLTSN | not soluble
MNKKILVVDDEESIVTLLQYNLERSGYDVITASDGEEALKKAETEKPDLIVLDVMLPKLDGIEVCKQLRQQKLMFPILMLTAKDEEFDKVLGLELGADDYMTKPFSPREVNARVKAILRRSEIRAPSSEMKNDEMEGQIVIGDLKILPDHYEAYFKESQLELTPKEFELLLYLGRHKGRVLTRDLLLSAVWNYDFAGDTRIVDVHISHLRDKIENNTKKPIYIKTIRGLGYKLEEPKMNE | soluble
EGLLNNHLDIPTATTQALTIQPSASYRINDHWSVGAALGIQYGMYEVETKGALNFNDEDQDTQLNGRVGVLYEATPGTRLGLSYSSETEFEFDNSNSIAPQQLIFSAYHEVNDDLAVMWNVNWQDWSEYTTTLKAADLVDVETQDTYQIALGTQYKLNEKMMWNAGFAFDTSMYESQSNGDITVPTGKAYRIGTGIDYKLDSENSIGFAFEAVLMESSETPRLQAGFDEPALYFMSMSYNWKN | not soluble
